Results on 2 proteins are retold here after article PMC9855186, “Photoautotrophic Growth Rate Enhancement of Synechocystis sp. PCC6803 by Heterologous Production of 2-Oxoglutarate:Ferredoxin Oxidoreductase from Chlorobaculum tepidum” (Biology, 2022).

Substrate in data set [1]: CC(C)(COP(=O)(O)OP(=O)(O)OC[C@H]1O[C@@H](n2cnc3c(N)ncnc32)[C@H](O)[C@@H]1OP(=O)(O)O)[C@@H](O)C(=O)NCCC(=O)NCCSC(=O)CCC(=O)O
The data set is described as follows: coupled Fd/FNR assay, NADPH decrease at A340, Michaelis-Menten fit. The format is biochemical, Chlorobaculum tepidum. As to conditions: carboxylation, 50 mM sodium bicarbonate fixed, 0.15 mM NADPH, 0.1 μM FNR, 1 μM Synechocystis Fd (slr1382), 1 mM MgCl2, 1 mM DTT, 1 mM TPP, pH 7.5, 30 °C, anaerobic, kcat per αβ-protomer. The source says: coupled Fd/FNR assay, NADPH decrease at A340, Michaelis-Menten fit on CtOGOR (2-oxoglutarate:ferredoxin oxidoreductase)

Substrate in data set [2]: CC(C)(COP(=O)(O)OP(=O)(O)OC[C@H]1O[C@@H](n2cnc3c(N)ncnc32)[C@H](O)[C@@H]1OP(=O)(O)O)[C@@H](O)C(=O)NCCC(=O)NCCS
The experiment in a line: coupled Fd/FNR assay, NADP+ reduction at A340, Michaelis-Menten fit. Format: biochemical, Chlorobaculum tepidum. The conditions noted are these: decarboxylation, 5 mM 2-oxoglutarate fixed, 0.15 mM NADP+, 0.1 μM FNR, 1 μM Synechocystis Fd (slr1382), 1 mM MgCl2, 1 mM DTT, 1 mM TPP, pH 7.5, 30 °C, anaerobic, kcat per αβ-protomer. The source says: (§1) coupled Fd/FNR assay, NADP+ reduction at A340, Michaelis-Menten fit on CtOGOR (2-oxoglutarate:ferredoxin oxidoreductase)

Substrate in data set [3]: O=C(O)CCC(=O)C(=O)O
Described as above. Format: biochemical, Chlorobaculum tepidum. As to conditions: decarboxylation, 0.5 mM CoA fixed, 0.15 mM NADP+, 0.1 μM FNR, 1 μM Synechocystis Fd (slr1382), 1 mM MgCl2, 1 mM DTT, 1 mM TPP, pH 7.5, 30 °C, anaerobic, kcat per αβ-protomer.
From the text: as §1

Substrate in data set [4]: O=C(O)C[C@H](C(=O)O)[C@@H](O)C(=O)O
The experiment in a line: NADP+ reduction at A340, Michaelis-Menten fit. Format: biochemical, Synechocystis sp. PCC 6803. The conditions noted are these: decarboxylation, 0.15 mM NADP+, 10 mM HEPES pH 8.0, 40 mM MgCl2.

Substrate in data set [5]: O=C(O)CCC(=O)C(=O)O
The experiment in a line: NADPH decrease at A340, Michaelis-Menten fit. The format is biochemical, Synechocystis sp. PCC 6803. The conditions noted are these: carboxylation, 50 mM sodium bicarbonate fixed, 0.15 mM NADPH, 10 mM HEPES pH 8.0, 40 mM MgCl2.

Usually Km stands for the substrate concentration at which the rate is half of its maximum. As a reminder, the kcat is the maximal rate divided by the concentration of active sites. Usually kcat/Km stands for the second-order rate constant that governs catalysis at low substrate concentration.

B1: CtOGOR (2-oxoglutarate:ferredoxin oxidoreductase) (Chlorobaculum tepidum TLS) (protein)
chain 1: MSDTVILNNNDMVISKTNVSVLFAGDSGDGMQLTGTQFANTVAVYGSDLNTFPNFPSEIRPPAGTVAGVSGFQLQFGTTGVYTPGAKFDVMIAMNAAALKANLKNLHHGGIIIADTDGFDAKNLNLAGYGETNNPLEDGTLTDYTVFKIPVISLTRQALADTGLSTKIIDRCKNMFVLGVLYWLYSLPLETTIEALQSKFKNKQDIAEANIKAVKAGYNFGDETEMFSQHGRFCVPPAQKKKGVYRRVTGNEASAIGLAAAAQKAGLELFLGSYPITPASEILQTLAGLKKWGVKTFQAEDEIAGILTSIGAAYGGALAATNTSGPGLALKTEGMGLAVILELPLVIINVMRGGPSTGLPTKPEQSDLLMAMYGRHGEAPMPVIAAMSPVDCFYAAYEAAKIAVEYMTPVLCLTDGYLALSSEPMLVPSPDELASITPMFSPERKADDPPYLPYKRDERCVRPWGIPGTPGLEHRIGGLEKQNETGHVSHDPENHALMTRLRAEKVAKVADIIPDLTIDNGPEKGDLLVLGWGSTYGAIKKAVEQAREGGLDVAHAHLRYINPFPKNLGAMLGNFKKVLIPENNCGQLLSLIRDKFLIEPVGFSKVQGLPFNEMEIEEKITDILKEL
chain 2: MTDTHTCLTAKDFTSNQEPKWCPGCGDFMVLQQLKNAMAELCLKTEEVVVVSGIGCSSRLPYYINTYGVHGIHGRAMAMASGLKVARPDLSVWVGTGDGDALSIGGNHYIHTVRRNLDINVVLFNNEIYGLTKGQYSPTSKVGLRTVTSPTGVVDYPINTIALTLGAGGTFVARVMDRDGKLMKEIFKRAHNHKGTSIVEIYQNCPIFNDGAFRAFSDKERKDDTTLYLEQGQPLVFGANGSKGIYLDGFKPTVIDLEKSGVSKDDLWIHDENDLIKANILSRFFDDPNSTEEFLPRPFGIFYVEDRFTYEQALSAQIDKAQEKGEGTLEELLAGNSTWTIN
notes: heterotetramer (alpha-beta)2, 220 kDa; N-terminal His6-KorA and C-terminal strep-tagged KorB, tags kept; codon-optimised genes; E. coli BL21(DE3); Fe-S clusters and TPP reconstituted
For the protein B1, the Km in data set [1] turned out to be 24 ± 2 µM; in data set [2] it was 42 ± 15 µM; in data set [3], 1689 ± 92 µM. The turnover number (kcat) in data set [1] worked out at 2.6 ± 0.1 s⁻¹; in data set [2], 8.1 ± 0.2 s⁻¹; in data set [3] it was 8.4 ± 0.1 s⁻¹. Moreover, the kcat/Km came to 110000 ± 3500 M⁻¹ s⁻¹ in data set [1], 192000 ± 2400 M⁻¹ s⁻¹ in data set [2] and 5000 ± 100 M⁻¹ s⁻¹ in data set [3].

B2: Icd (isocitrate dehydrogenase) (Synechocystis sp. PCC 6803 substr. Kazusa) (protein)
chain: MYEKLQPPSVGSKITFVAGKPVVPNDPIIPYIRGDGTGVDIWPATELVINAAIAKAYGGREEINWFKVYAGDEACELYGTYQIFPEDTLTAIKEYGVAIKGPLTTPVGGGIRSLNVALRQIFDLYTCVRPCRYYPGTPSPHKTPEKLDIIVYRENTEDIYLGIEWAEGTEGAKKLIAYLNDELIPTTPALGKKQIRLDSGIGIKPISKTGSQRLVRRAILHAKRLPKAKQMVTLVHKGNIMKFTEGPFRDWGYELATTEFRAECVTERESWICGNKESNPDLTIEANAHMIDPGYDTLTEEKQAVIKQEVEQVLNSIWESHGNGQWKEKVMVNDRIADSIFQQIQTRPDEYSILATMNLNGDYLSDAAAAVVGGLGMGPGANIGDSAAIFEATHGTAPKHAGLDRINPGSVILSGVMMLEFMGWQEAADLIKKGIGAAIANREVTYDLARLMEPKVDKPLKCSEFAQAIVSHFDD
For the protein B2, the results for the Km in data set [4] and in data set [5] were 121 ± 13 µM and 1003 µM, respectively.
